In data set [1] the test system is HeLa Kyoto. Briefly: solubility in G1/S (NP-40 vs SDS abundance) (log2 ratio); higher = more soluble. The following applies: cell cycle stage: G1/S.
Data set [2] deals with HeLa Kyoto. Briefly: thermal stability score vs G1/S (z-score of summed log2 fold changes over temperatures); higher = more thermally stable than in G1/S.
The test system of data set [3] is HeLa Kyoto. Briefly: melting temperature (median over replicates), in situ; higher = more thermally stable.
Data set [4] deals with HeLa Kyoto. The data set can be described thus: solubility change mitosis vs G1/S (difference of NP-40 vs SDS log2 ratios) (log2 ratio difference); higher = more soluble in mitosis.
Where [5] appears, read: cell cycle stage: early G1 (4.5 h after nocodazole release).
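Wherever melting temperature (median over replicates), in situ is given: HeLa Kyoto cells synchronized by double thymidine or nocodazole block, proteins quantified by TMT10plex mass spectrometry, three independent biological replicates.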
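Wherever solubility change mitosis vs G1/S (difference of NP-40 vs SDS log2 ratios) is given: synchronized HeLa Kyoto cells (double thymidine block for G1/S, nocodazole release for mitosis), protein amounts in NP-40 versus SDS lysates quantified by mass spectrometry, three biological replicates.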
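Wherever solubility in G1/S (NP-40 vs SDS abundance) is given: HeLa Kyoto cells arrested at G1/S by double thymidine block, proteins quantified by TMT10plex mass spectrometry in mild NP-40 versus SDS extracts, three biological replicates.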
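Wherever thermal stability score vs G1/S (z-score of summed log2 fold changes over temperatures) is given: synchronized HeLa Kyoto cells, proteins quantified by TMT10plex mass spectrometry, three biological replicates, mitosis taken 0.5 h after nocodazole release, G1/S directly after double thymidine block.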

Consider “MADIDNKEQSELDQDLDDVEEVEEEETGEETKLKARQLTVQMMQNPQILAALQERLDGLVETPTGYIESLPRVVKRRVNALKNLQVKCAQIEAKFYEEVHDLERKYAVLYQPLFDKRFEIINAIYEPTEEECEWKPDEEDEISEELKEKAKIEDEKKDEEKEDPKGIPEFWLTVFKNVDLLSDMVQEHDEPILKHLKDIKVKFSDAGQPMSFVLEFHFEPNEYFTNEVLTKTYRMRSEPDDSDPFSFDGPEIMGCTGCQIDWKKGKNVTLKTIKKKQKHKGRGTVRTVTKTVSNDSFFNFFAPPEVPESGDLDDDAEAILAADFEIGHFLRERIIPRSVLYFTGEAIEDDDDDYDEEGEEADEEGEEEGDEENDPDYDPKKDQNPAECKQQ [NAP1L1]”, for which the “solubility in G1/S (log2)” value in data set [1] came to 0.329. Besides, the values for the thermal stability score in data set [2] (setting [5]) and in data set [2] (cell cycle stage: mitosis) were 2.07 and 2.03, respectively. Besides, the melting temperature in data set [3] (cell cycle stage: G1/S) came to 49.7 °C; in data set [3] (cell cycle stage: mitosis), 50.9 °C. In data set [4], the “solubility change mitosis (log2)” value was -0.0741.
Consider “MADKEAGGSDGPRETAPTSAYSSPARSLGDTGITPLSPSHIVNDTDSNVSEQQSFLVVVAVDFGTTSSGYAYSFTKEPECIHVMRRWEGGDPGVSNQKTPTTILLTPERKFHSFGYAARDFYHDLDPNEAKQWLYLEKFKMKLHTTGDLTMDTDLTAANGKKVKALEIFAYALQYFKEQALKELSDQAGSEFENSDVRWVITVPAIWKQPAKQFMRQAAYQAGLASPENSEQLIIALEPEAASIYCRKLRLHQMIELSSKAAVNGYSGSDTVGAGFTQAKEHIRRNRQSRTFLVENVIGEIWSELEEGDKYVVVDSGGGTVDLTVHQIRLPEGHLKELYKATGGPYGSLGVDYEFEKLLYKIFGEDFIEQFKIKRPAAWVDLMIAFESRKRAAAPDRTNPLNITLPFSFIDYYKKFRGHSVEHALRKSNVDFVKWSSQGMLRMSPDAMNALFKPTIDSIIEHLRDLFQKPEVSTVKFLFLVGGFAEAPLLQQAVQAAFGDQCRIIIPQDVGLTILKGAVLFGLDPAVIKVRRSPLTYGVGVLNRYVEGKHPPEKLLVKDGTRWCTDVFDKFISADQSVALGELVKRSYTPAKPSQLVIVINIYSSEHDNVSFITDPGVKKCGTLRLDLTGTSGTAVPARREIQTLMQFGDTEIKATAIDIATSKSVKVGIDFLNY [HSPA12A]”, for which the “solubility in G1/S (log2)” value in data set [1] was -0.123. Also, the thermal stability score in data set [2] (setting [5]) worked out at 0.628; in data set [2] (cell cycle stage: mitosis), 1. Moreover, the melting temperature in data set [3] (cell cycle stage: G1/S) was 52.1 °C; in data set [3] (cell cycle stage: mitosis), 52.7 °C. Also, the “solubility change mitosis (log2)” value in data set [4] is -0.113.
Regarding “MADKVRRQRPRRRVCWALVAVLLADLLALSDTLAVMSVDLGSESMKVAIVKPGVPMEIVLNKESRRKTPVIVTLKENERFFGDSAASMAIKNPKATLRYFQHLLGKQADNPHVALYQARFPEHELTFDPQRQTVHFQISSQLQFSPEEVLGMVLNYSRSLAEDFAEQPIKDAVITVPVFFNQAERRAVLQAARMAGLKVLQLINDNTATALSYGVFRRKDINTTAQNIMFYDMGSGSTVCTIVTYQMVKTKEAGMQPQLQIRGVGFDRTLGGLEMELRLRERLAGLFNEQRKGQRAKDVRENPRAMAKLLREANRLKTVLSANADHMAQIEGLMDDVDFKAKVTRVEFEELCADLFERVPGPVQQALQSAEMSLDEIEQVILVGGATRVPRVQEVLLKAVGKEELGKNINADEAAAMGAVYQAAALSKAFKVKPFVVRDAVVYPILVEFTREVEEEPGIHSLKHNKRVLFSRMGPYPQRKVITFNRYSHDFNFHINYGDLGFLGPEDLRVFGSQNLTTVKLKGVGDSFKKYPDYESKGIKAHFNLDESGVLSLDRVESVFETLVEDSAEEESTLTKLGNTISSLFGGGTTPDAKENGTDTVQEEEESPAEGSKDEPGEQVELKEEAEAPVEDGSQPPPPEPKGDATPEGEKATEKENGDKSEAQKPSEKAEAGPEGVAPAPEGEKKQKPARKRRMVEEIGVELVVLDLPDLPEDKLAQSVQKLQDLTLRDLEKQEREKAANSLEAFIFETQDKLYQPEYQEVSTEEQREEISGKLSAASTWLEDEGVGATTVMLKEKLAELRKLCQGLFFRVEERKKWPERLSALDNLLNHSSMFLKGARLIPEMDQIFTEVEMTTLEKVINETWAWKNATLAEQAKLPATEKPVLLSKDIEAKMMALDREVQYLLNKAKFTKPRPRPKDKNGTRAEPPLNASASDQGEKVIPPAGQTEDAEPISEPEKVETGSEPGDTEPLELGGPGAEPEQKEQSTGQKRPLKNDEL [HYOU1]”, in data set [1], the “solubility in G1/S (log2)” value is 0.402. Further, the thermal stability score in data set [2] (setting [5]) turned out to be 3.86; in data set [2] (cell cycle stage: mitosis), 5.24. The melting temperature amounted to 54.1 °C in data set [3] (cell cycle stage: G1/S) and 54.4 °C in data set [3] (cell cycle stage: mitosis). Moreover, in data set [4], the “solubility change mitosis (log2)” value is -0.0667.
As for “MADLSLADALTEPSPDIEGEIKRDFIATLEAEAFDDVVGETVGKTDYIPLLDVDEKTGNSESKKKPCSETSQIEDTPSSKPTLLANGGHGVEGSDTTGSPTEFLEEKMAYQEYPNSQNWPEDTNFCFQPEQVVDPIQTDPFKMYHDDDLADLVFPSSATADTSIFAGQNDPLKDSYGMSPCNTAVVPQGWSVEALNSPHSESFVSPEAVAEPPQPTAVPLELAKEIEMASEERPPAQALEIMMGLKTTDMAPSKETEMALAKDMALATKTEVALAKDMESPTKLDVTLAKDMQPSMESDMALVKDMELPTEKEVALVKDVRWPTETDVSSAKNVVLPTETEVAPAKDVTLLKETERASPIKMDLAPSKDMGPPKENKKETERASPIKMDLAPSKDMGPPKENKIVPAKDLVLLSEIEVAQANDIISSTEISSAEKVALSSETEVALARDMTLPPETNVILTKDKALPLEAEVAPVKDMAQLPETEIAPAKDVAPSTVKEVGLLKDMSPLSETEMALGKDVTPPPETEVVLIKNVCLPPEMEVALTEDQVPALKTEAPLAKDGVLTLANNVTPAKDVPPLSETEATPVPIKDMEIAQTQKGISEDSHLESLQDVGQSAAPTFMISPETVTGTGKKCSLPAEEDSVLEKLGERKPCNSQPSELSSETSGIARPEEGRPVVSGTGNDITTPPNKELPPSPEKKTKPLATTQPAKTSTSKAKTQPTSLPKQPAPTTIGGLNKKPMSLASGLVPAAPPKRPAVASARPSILPSKDVKPKPIADAKAPEKRASPSKPASAPASRSGSKSTQTVAKTTTAAAVASTGPSSRSPSTLLPKKPTAIKTEGKPAEVKKMTAKSVPADLSRPKSTSTSSMKKTTTLSGTAPAAGVVPSRVKATPMPSRPSTTPFIDKKPTSAKPSSTTPRLSRLATNTSAPDLKNVRSKVGSTENIKHQPGGGRAKVEKKTEAAATTRKPESNAVTKTAGPIASAQKQPAGKVQIVSKKVSYSHIQSKCGSKDNIKHVPGGGNVQIQNKKVDISKVSSKCGSKANIKHKPGGGDVKIESQKLNFKEKAQAKVGSLDNVGHLPAGGAVKTEGGGSEAPLCPGPPAGEEPAISEAAPEAGAPTSASGLNGHPTLSGGGDQREAQTLDSQIQETSI [MAP4]”, the “solubility in G1/S (log2)” value in data set [1] came out at 0.265. Also, the results for the thermal stability score in data set [2] (setting [5]) and in data set [2] (cell cycle stage: mitosis) were -3.19 and -3.41, respectively. The melting temperature in data set [3] (cell cycle stage: G1/S) was found to be 59 °C. Besides, the “solubility change mitosis (log2)” value in data set [4] is -0.0455.

These data come from the supplement of paper PMC5998384.
